The target of assay [1] is Entamoeba histolytica Phosphoserine aminotransferase (Entamoeba histolytica). As to the kind of experiment: SEC; Superdex 200 10/300 GL column, EhPSAT at pH 6, 7, 8 and 9; calibrated with ferritin, aldolase, conalbumin and ovalbumin; also run with 200 mM NaCl or NaF. (In gel filtration, larger molecules generally elute earlier.)
The target is the same in assay [2]. The assay is described as follows: cross-linking; glutaraldehyde cross-linking of EhPSAT incubated at pH 9, 8, 7 and 6, analysed on 10% SDS-PAGE.

From paper PMC2850911 come the findings set out here.

The stoichiometry N is a count of units in the complex or per binding partner. Regarding “Entamoeba histolytica Phosphoserine aminotransferase (enzyme)”, the stoichiometry N in assay [1] and in assay [2] was 2 in each case.
